# Measurements taken from publication PMC4991794.
# Target: T1, SenRc (His-tagged response regulator) (Streptomyces coelicolor A3(2)) (UniProt Q9KXW5)
# T1 sequence: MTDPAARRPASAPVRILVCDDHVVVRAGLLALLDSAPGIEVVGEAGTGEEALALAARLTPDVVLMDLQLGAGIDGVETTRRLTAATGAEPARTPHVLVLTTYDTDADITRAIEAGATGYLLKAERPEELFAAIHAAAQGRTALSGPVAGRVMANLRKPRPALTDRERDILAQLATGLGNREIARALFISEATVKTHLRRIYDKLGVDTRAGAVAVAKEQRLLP
# Assay: EMSA
# Settings: 10 mM Tris-HCl pH 7.5, 5% glycerol, 40 mM KCl, 1 mM MgCl2, 2 mM DTT, 10 ug/ml BSA; 30 C, 15 min; 30 ul with 20 ng or 25 ng (Methods) DNA; 7% …
row,Sequence,binding
1,CACCGGATACCTGTTGAAGGCCGAACGCCCCGAGGAGCTGTTCGCGGCCATCCACGCCGCCGCCCAGGGCCGTACGGCACTGTCCGGGCCGGTCGCCGGCCGGGTCATGGCCAACCTGCGCAAGCCGCGCCCCGCCCTCACCGACCGCGAGCGCGACATCCTGGCCCAGCTCGCCACCGGGCTCGGCAACCGGGAGATCGCCCGCGCCCTGTTCATCAG (double strand) [in-senRc],no binding
2,CACGTCGACCTCGGCCGCATGTCCAGCGCCATCTGTCCGGGCCGCTGAGAGCACTCTCCAGCACCTCCGGATTCCCCGCATTCACCTCGCTCCCGCGCAATGACGCGCACGCGTGTCTCACGTATGCCCACGTAGTGCCATGCGCCATGCGCGCAGGTCAGAGCCGTTTCCACCTGTCTCCAAAGGACGTGTCACACCATGGCCGCCACTC (double strand) [up-SCO6102],binds
3,CTCGTACGTCCGTTTCGGGGGCTCGAAGACGGCTTCGCGCCCCCCGCCGTGCCCCCACGCTTACACGTTCCGGCCTGTACGCGTCCGTTTCCGGCACCCCAAATGAACCGTCCCTGGCTCCAAGGTGAACTCTGGGCGACGAGTGTTCGAGGTCGCACCCGGATGGCTGGGGCCGGACGGTTCGCCGTGCCTAACCTGGAGACATGGACGTGAAC (double strand) [up-SCO4229],binds
4,GAAAGCATGGGTGTTAAAGTCGTGTGCATGAAGCAAGCAGCCGCGCCCACCACACCACAGCGCCTCGCGCTCGTGGCGCGCCTGCACGTGGACCTCTGCCGGTGCGCGTCCGCGAACTGTCGCCCCTGACGTTCCCCCCTCACCAGTCGTCCCCACGTCAGCTCAGCGCGTCCCATCCCGCGTCCCGTCCCCCTACGGAGCATGTCCGTGTG (double strand) [up-SCO4498],binds
5,GAGGAAGCCCGGTGCGAATCCGGCGCGGTCCCGCCACTGTGACCGGGGACAGGATCCCCGGGAGCCAGGAACTCTCGCCGCCGTGCTCTTCGAACCAGGGCGCGGACACCCTGAGTGAGGACCTATCGCCATGCGCGGCTGCCGTTCCGGGCTCACCAGCGACACGCTTCGACTTCCCCTTCCCACGGCCGGTTGAGCCGTGCGTGCC (double strand) [up-SCO1847],binds
6,GAGTGGCGGCCATGGTGTGACACGTCCTTTGGAGACAGGTGGAAACGGCTCTGACCTGCGCGCATGGCGCATGGCACTACGTGGGCATACGTGAGACACGCGTGCGCGTCATTGCGCGGGAGCGAGGTGAATGCGGGGAATCCGGAGGTGCTGGAGAGTGCTCTCTTCAAGCTTGACAGATGGCGCTGGACATGCGGCCGAGGTCGACGTG (double strand) [up-SCO6102*],no binding
7,GGCACGTGCGCGCACGCCTGTCCAGTCCGAGGACCTGCCGACAGTGCGCCCGGCCGCCCTGGCCCGGGTGCCATGACGTCCGGGCCTCGCGGAGTGGGCCGGTGGACGCGACGCCGCGTGCGCTCGTGAGCTGCCCCCTGCCCTCCCTCCGCCGGGCCCCGTGCCGAGCGAGGGAGTGCTCCACGTGACCATCGCGCCAG (double strand) [up-SCO5226],binds
8,GTTCACGTCCATGTCTCCAGGTTAGGCTCGTCGAAGATCAAGCTTGAGCCATCCGGGTGGGACCTCGAACACTCGTCGCCCAGAGTTCACCTTGGAGCCAGGGACGGTTCATTTGGGGTGCCGGAAACGGACGCGTACAGGCCGGAACGTGTAAGCGTGGGGGCACGGCGGGGGGCGCGAAGCCGTCTTCGAGCCCCCGAAACGGACGTACGAG (double strand) [up-SCO4229*],no binding
